This passage reports abundance fitness results from the Human Domainome abundance scans (Beltran et al. 2025).

± gives the uncertainty stated by the source.

B1: POU domain, class 4, transcription factor 3, residues 185 to 256; numbered along this chain, Q15319 (parent)
chain: RELEAFAERFKQRRIKLGVTQADVGAALANLKIPGVGSLSQSTICRFESLTLSHNNMIALKPVLQAWLEEAE

This series covers variants of B1. Put plainly: abundance fitness (aPCA) (normalised: wild type 0, dead -1); higher = more abundant; growth selection in yeast, the domain comes from the species named. The note with it: Homo sapiens.
For RELEAFPERFKQRRIKLGVTQADVGAALANLKIPGVGSLSQSTICRFESLTLSHNNMIALKPVLQAWLEEAE, the abundance fitness is -0.579 ± 0.042.
Take RELEAFAERFKQRRIKLGVTQADVGAALANLKIPGVGSLSQSTICRFESLCLSHNNMIALKPVLQAWLEEAE: the abundance fitness is -0.121 ± 0.12.
Under RELEAFAERFKQRRIKLGVTQADVGAALANLKIPGAGSLSQSTICRFESLTLSHNNMIALKPVLQAWLEEAE stands -0.089 ± 0.1.
Consider RELEAFAERFKQRRIKLGVTQADVGAALANLKIPGVGPLSQSTICRFESLTLSHNNMIALKPVLQAWLEEAE, for which the abundance fitness came out at 0.055 ± 0.041.
With RPLEAFAERFKQRRIKLGVTQADVGAALANLKIPGVGSLSQSTICRFESLTLSHNNMIALKPVLQAWLEEAE, the abundance fitness was -0.345 ± 0.13.
Under RELEAFAERFKQRRIKLGVTVADVGAALANLKIPGVGSLSQSTICRFESLTLSHNNMIALKPVLQAWLEEAE stands -0.002 ± 0.11; under RELEAFAERFKQRRIKLGVTQADVGAALANLKIPGVGSLSQPTICRFESLTLSHNNMIALKPVLQAWLEEAE, -0.428 ± 0.07.
The result for RELEAFAERFKQRRIKLGVTQADVGAALANLKIPGVGSLSQMTICRFESLTLSHNNMIALKPVLQAWLEEAE reads -0.1 ± 0.099; that for RELEAFAERFKQRRIKLGVTQADVGAALANLKIPGVGSLQQSTICRFESLTLSHNNMIALKPVLQAWLEEAE, -0.287 ± 0.15; that for RELEAFAERFKQRRIKLGVTQADVGAALANLKIPGVGSLSQSTICRFESLTLSHNNMIALMPVLQAWLEEAE, 0.02 ± 0.1.
Under RELEAFAERFKQRRIKLGVTQKDVGAALANLKIPGVGSLSQSTICRFESLTLSHNNMIALKPVLQAWLEEAE stands -0.263 ± 0.23; under RELEAFAERFKQRRIKLGVTQCDVGAALANLKIPGVGSLSQSTICRFESLTLSHNNMIALKPVLQAWLEEAE, -0.264 ± 0.051; under RELEAFAERFKQRRIKLGVTQDDVGAALANLKIPGVGSLSQSTICRFESLTLSHNNMIALKPVLQAWLEEAE, -0.176 ± 0.14.
Turning to RELEAFAERFKQRRIKLGVTQADVGAALQNLKIPGVGSLSQSTICRFESLTLSHNNMIALKPVLQAWLEEAE, the abundance fitness is 0.123 ± 0.11.
Regarding RELEAFAERFKQRRIKLGVTQADVGAALNNLKIPGVGSLSQSTICRFESLTLSHNNMIALKPVLQAWLEEAE, the abundance fitness is -0.053 ± 0.095.
With RELEAFAERFKQRRIKLGVTQADVGAALANLKIPGVGSLSQSTICRWESLTLSHNNMIALKPVLQAWLEEAE, the abundance fitness is -0.508 ± 0.066.
The result for RELEAFAERFKQRRIKLGVTQADVGAALANLKIPGVGSLSQSTICRFESLTLSHNLMIALKPVLQAWLEEAE reads 0.105 ± 0.13.
Under RELEAFAERFKQRRIKLGVTQAFVGAALANLKIPGVGSLSQSTICRFESLTLSHNNMIALKPVLQAWLEEAE stands -0.208 ± 0.21; under RELEAFAERFKQRRIKLGVTQATVGAALANLKIPGVGSLSQSTICRFESLTLSHNNMIALKPVLQAWLEEAE, -0.307 ± 0.18.
Under RELEAFAERFKQRRIKLGVTQADVGAALANLKIPGVGSLSQSTICRFESLTLSHNNMEALKPVLQAWLEEAE stands 0.071 ± 0.34; under RELEAFAERFKSRRIKLGVTQADVGAALANLKIPGVGSLSQSTICRFESLTLSHNNMIALKPVLQAWLEEAE, -0.083 ± 0.047; under RELEAFAERFKQRRWKLGVTQADVGAALANLKIPGVGSLSQSTICRFESLTLSHNNMIALKPVLQAWLEEAE, -0.527 ± 0.32.
Consider RELEAFAERFKQRRMKLGVTQADVGAALANLKIPGVGSLSQSTICRFESLTLSHNNMIALKPVLQAWLEEAE, for which the abundance fitness was 0.024 ± 0.061.
Under RELEAFAERFKQRRIKLGVTQADVGAALANLKIPGVGSLSQSTICRFESLTLSHNNMIALKPVSQAWLEEAE stands -0.768 ± 0.076; under RELEAFAERFKQRRIKLGVTQADVGAALANCKIPGVGSLSQSTICRFESLTLSHNNMIALKPVLQAWLEEAE, 0.352 ± 0.23.
The result for RELEAFAEYFKQRRIKLGVTQADVGAALANLKIPGVGSLSQSTICRFESLTLSHNNMIALKPVLQAWLEEAE reads -0.025 ± 0.091.
Consider RELEAFAERFKQRRIKLGVTQADVGAALANLKIPGVGSLSQSTICRFESPTLSHNNMIALKPVLQAWLEEAE, for which the abundance fitness is -1.02 ± 0.14.
Consider RELEAFAERFKQRRIKLGVTQADVGAALANLKIPGVGSLSQSTICRFESKTLSHNNMIALKPVLQAWLEEAE, for which the abundance fitness is -0.012 ± 0.073.
With RELEAFAERFKQRRIKLGVTQADVGAALANLKIGGVGSLSQSTICRFESLTLSHNNMIALKPVLQAWLEEAE, the abundance fitness was -0.313 ± 0.33.
The result for RELEAFAERFKQRRIKLGVTQADVGAALANLEIPGVGSLSQSTICRFESLTLSHNNMIALKPVLQAWLEEAE reads 0.034 ± 0.067.
The result for RELEAFAERFKQRRIKLGVTQADVGAALANLKIPGVDSLSQSTICRFESLTLSHNNMIALKPVLQAWLEEAE reads -0.093 ± 0.15; that for RELEAFAERFKQRRIKLGVTQADVGAALANLKIPGVPSLSQSTICRFESLTLSHNNMIALKPVLQAWLEEAE, -0.055 ± 0.083.
Under RELEAFAERFKQRRIKLGVTQADVGAALANLKIPGVGSLSQSTICRFESLTLSHNNMIALKPVLQAWLEEFE stands -0.139 ± 0.034.
Turning to RELEAFAERFKQRRIKLGVTQADVGAALANLKIPGVGSLSQSTICRFESLTLSHNNMIALKPVLQAWLEEIE, the abundance fitness was -0.178 ± 0.037.
The result for RELEAFAERFKQRRIKLGVTQADVWAALANLKIPGVGSLSQSTICRFESLTLSHNNMIALKPVLQAWLEEAE reads -0.317 ± 0.14; that for RELEAFAERFKQRRIKLGVTQADVMAALANLKIPGVGSLSQSTICRFESLTLSHNNMIALKPVLQAWLEEAE, -0.27 ± 0.11.
Regarding RELELFAERFKQRRIKLGVTQADVGAALANLKIPGVGSLSQSTICRFESLTLSHNNMIALKPVLQAWLEEAE, the abundance fitness turned out to be 0.019 ± 0.065.
The result for RELESFAERFKQRRIKLGVTQADVGAALANLKIPGVGSLSQSTICRFESLTLSHNNMIALKPVLQAWLEEAE reads -0.002 ± 0.19.
